Source: publication PMC4520625 (Biochemistry, 2015)
Blank lines part the entries; values can stand above or below the binder they belong to. Ends that are not written are not given here. * marks the point of attachment. Galβ1,3GalNAcα = CC(=O)N[C@@H]1[C@@H](O[C@@H]2O[C@H](CO)[C@H](O)[C@H](O)[C@H]2O)[C@@H](O)[C@@H](CO)O[C@@H]1*

Tests used:
[1] = target: full-length human galectin-3 (human, UniProt P17931 1-250); experiment: ITC
[2] = target: His-tagged galectin-3 (human, UniProt P17931 1-250); experiment: AlphaScreen or HTRF
Sequence of His-tagged galectin-3 (P17931 whole entry): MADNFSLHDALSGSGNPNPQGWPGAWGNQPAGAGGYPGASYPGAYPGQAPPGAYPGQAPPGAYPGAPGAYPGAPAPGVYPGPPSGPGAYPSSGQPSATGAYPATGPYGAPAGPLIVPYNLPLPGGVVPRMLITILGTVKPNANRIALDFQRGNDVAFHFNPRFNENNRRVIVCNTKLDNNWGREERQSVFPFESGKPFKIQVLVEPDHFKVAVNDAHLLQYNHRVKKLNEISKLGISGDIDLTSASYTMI

Sequence of full-length human galectin-3 (P17931 whole entry): as above

Ka [1]: 7600 M⁻¹
dH [1]: -1.79 kcal/mol
stoichiometry N [1]: 0.87
Binder: HGVT(Galβ1,3GalNAcα)SAPDTRPAPGS [MUC1(1-15)-Thr4 truncated glycopeptide carrying the TF antigen]

IC50 [2]: 2.3 nM
B1: asialofetuin (ASF), unlabeled (natural protein, UniProt P12763 19-359, looked up)
chain: IPLDPVAGYKEPACDDPDTEQAALAAVDYINKHLPRGYKHTLNQIDSVKVWPRRPTGEVYDIEIDTLETTCHVLDPTPLANCSVRQQTQHAVEGDCDIHVLKQDGQFSVLFTKCDSSPDSAEDVRKLCPDCPLLAPLNDSRVVHAVEVALATFNAESNGSYLQLVEISRAQFVPLPVSVSVEFAVAATDCIAKEVVDPTKCNLLAEKQYGFCKGSVIQKALGGEDVRVTCTLFQTQPVIPQPQPDGAEAEAPSAVPDAAGPTPSAAGPPVASVVVGPSVVAVPLPLHRAHYDLRHTFSGVASVESSSGEAFHVGKTPIVGQPSIPGGPVRLCPGRIRYFKI
modifications: three complex-type N-glycans (asialo)

Ka [1]: 2900 M⁻¹
dH [1]: -1.32 kcal/mol
stoichiometry N [1]: 0.97
Binder: HGVT(Galβ1,3GalNAcα)SAPD [MUC1(1-8)-Thr4 truncated glycopeptide carrying the TF antigen]
